Results from US20260234224A1 (VANDERBILT UNIVERSITY, published 2026).

Target: T1, SARS-CoV-2 RBD (SARS-CoV-2, UniProt P0DTC2 319-541)
T1 construct: domain: RBD
Assay: ELISA on recombinant spike subdomains

B1: 71281-31 (antibody, V domains shown)
VH: QVQLVESGGGVVQPGRSLRLSCAASGFTFSRYGMHWVRQAPGKGLEWVAFISYDGDNKYYADSVKGRFTISRDNSKNTLYLQMDSLRTEDTAVYYCAKDPTARLGYCRGGSCYLADYWGQGTLVTVSS
VL: SYVLTQPPSVSVAPAQTARITCGGNNIESKSVHWYQQKPGQAPVLVVYENSDRPSGIPERFSGSNSGNMATLTISRVEAGDEADYYCQVWESSSDHVIFGGGTKLTVL
- binding result: binds
